Measured values as given in patent US20090118184A1 (UNIVERSITY OF ROCHESTER, published 2009).

Tests used:
Test in all cases: cell-based or functional assay
[1] = biological target: T1, factor VIIIa A1/A3C1C2 dimer, Glu1984Ala (human, UniProt P00451 20-391; P00451 1709-2351)
T1 sequence 1: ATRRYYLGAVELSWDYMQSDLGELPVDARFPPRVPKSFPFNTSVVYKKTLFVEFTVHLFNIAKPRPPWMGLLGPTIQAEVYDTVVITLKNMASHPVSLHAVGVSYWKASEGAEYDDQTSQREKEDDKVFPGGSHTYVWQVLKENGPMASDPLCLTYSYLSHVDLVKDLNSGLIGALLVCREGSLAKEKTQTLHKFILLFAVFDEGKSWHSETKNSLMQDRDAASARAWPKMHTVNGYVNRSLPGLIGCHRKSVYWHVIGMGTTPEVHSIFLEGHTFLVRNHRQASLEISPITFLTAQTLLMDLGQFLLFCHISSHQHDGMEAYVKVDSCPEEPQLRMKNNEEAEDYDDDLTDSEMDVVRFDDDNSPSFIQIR
T1 sequence 2: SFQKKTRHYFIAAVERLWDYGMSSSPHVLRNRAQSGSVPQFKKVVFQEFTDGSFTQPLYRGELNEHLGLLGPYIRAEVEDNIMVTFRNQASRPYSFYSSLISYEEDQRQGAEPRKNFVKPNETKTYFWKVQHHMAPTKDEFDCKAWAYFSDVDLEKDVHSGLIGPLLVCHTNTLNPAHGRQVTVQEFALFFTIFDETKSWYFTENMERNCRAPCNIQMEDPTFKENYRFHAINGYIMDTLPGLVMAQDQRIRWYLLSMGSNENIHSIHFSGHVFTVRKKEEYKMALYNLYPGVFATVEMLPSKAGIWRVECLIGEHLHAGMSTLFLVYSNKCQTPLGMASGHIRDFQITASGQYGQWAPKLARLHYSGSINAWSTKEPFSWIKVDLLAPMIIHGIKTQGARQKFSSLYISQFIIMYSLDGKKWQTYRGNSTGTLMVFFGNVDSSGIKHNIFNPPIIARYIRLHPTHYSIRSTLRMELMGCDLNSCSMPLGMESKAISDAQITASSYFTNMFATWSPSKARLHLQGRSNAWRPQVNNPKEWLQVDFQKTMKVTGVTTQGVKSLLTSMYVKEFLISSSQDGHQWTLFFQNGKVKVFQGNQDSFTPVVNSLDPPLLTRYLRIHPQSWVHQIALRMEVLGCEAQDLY

[2] = biological target: T2, factor VIIIa A1/A3C1C2 dimer, Glu272Val (human, UniProt P00451 20-391; P00451 1709-2351)
T2 chain 1: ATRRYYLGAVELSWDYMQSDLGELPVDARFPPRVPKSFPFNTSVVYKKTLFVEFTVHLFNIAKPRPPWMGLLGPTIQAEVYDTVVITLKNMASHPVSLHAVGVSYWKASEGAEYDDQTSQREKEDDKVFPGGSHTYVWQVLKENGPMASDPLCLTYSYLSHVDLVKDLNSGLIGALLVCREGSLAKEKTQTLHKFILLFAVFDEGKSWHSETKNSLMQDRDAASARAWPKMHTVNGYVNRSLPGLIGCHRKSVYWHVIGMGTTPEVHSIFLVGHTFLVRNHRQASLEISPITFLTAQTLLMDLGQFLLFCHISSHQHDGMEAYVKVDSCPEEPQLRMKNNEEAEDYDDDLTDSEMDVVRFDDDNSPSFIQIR
T2 chain 2: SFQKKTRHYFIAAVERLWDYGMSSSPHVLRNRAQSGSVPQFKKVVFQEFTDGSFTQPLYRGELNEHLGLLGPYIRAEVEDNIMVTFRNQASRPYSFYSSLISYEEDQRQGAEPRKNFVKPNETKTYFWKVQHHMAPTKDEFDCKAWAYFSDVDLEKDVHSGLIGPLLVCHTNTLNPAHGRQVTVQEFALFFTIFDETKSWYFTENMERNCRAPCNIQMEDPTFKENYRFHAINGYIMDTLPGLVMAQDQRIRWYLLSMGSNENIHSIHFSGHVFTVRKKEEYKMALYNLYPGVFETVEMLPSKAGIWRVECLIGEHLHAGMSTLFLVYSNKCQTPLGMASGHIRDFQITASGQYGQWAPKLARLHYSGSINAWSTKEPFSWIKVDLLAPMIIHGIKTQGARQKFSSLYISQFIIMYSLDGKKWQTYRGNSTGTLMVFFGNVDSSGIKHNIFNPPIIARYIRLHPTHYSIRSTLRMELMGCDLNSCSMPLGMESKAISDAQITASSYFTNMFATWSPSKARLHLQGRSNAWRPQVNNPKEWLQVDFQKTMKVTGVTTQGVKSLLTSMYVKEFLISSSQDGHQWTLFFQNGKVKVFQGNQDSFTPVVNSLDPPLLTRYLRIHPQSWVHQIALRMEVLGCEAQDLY

[3] = biological target: T3, factor VIIIa A1/A3C1C2 dimer, Glu272Ala (human, UniProt P00451 20-391; P00451 1709-2351)
T3 chain 1: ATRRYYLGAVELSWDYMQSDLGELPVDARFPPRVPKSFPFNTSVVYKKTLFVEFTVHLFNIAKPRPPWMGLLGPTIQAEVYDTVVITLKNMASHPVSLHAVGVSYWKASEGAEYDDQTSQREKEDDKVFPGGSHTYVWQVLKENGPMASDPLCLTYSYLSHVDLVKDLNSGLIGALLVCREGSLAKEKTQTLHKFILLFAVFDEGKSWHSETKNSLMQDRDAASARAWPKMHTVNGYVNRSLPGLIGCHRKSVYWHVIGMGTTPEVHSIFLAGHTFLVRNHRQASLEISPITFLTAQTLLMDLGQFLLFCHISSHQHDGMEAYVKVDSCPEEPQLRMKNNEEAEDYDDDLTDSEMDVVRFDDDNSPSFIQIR
T3 chain 2: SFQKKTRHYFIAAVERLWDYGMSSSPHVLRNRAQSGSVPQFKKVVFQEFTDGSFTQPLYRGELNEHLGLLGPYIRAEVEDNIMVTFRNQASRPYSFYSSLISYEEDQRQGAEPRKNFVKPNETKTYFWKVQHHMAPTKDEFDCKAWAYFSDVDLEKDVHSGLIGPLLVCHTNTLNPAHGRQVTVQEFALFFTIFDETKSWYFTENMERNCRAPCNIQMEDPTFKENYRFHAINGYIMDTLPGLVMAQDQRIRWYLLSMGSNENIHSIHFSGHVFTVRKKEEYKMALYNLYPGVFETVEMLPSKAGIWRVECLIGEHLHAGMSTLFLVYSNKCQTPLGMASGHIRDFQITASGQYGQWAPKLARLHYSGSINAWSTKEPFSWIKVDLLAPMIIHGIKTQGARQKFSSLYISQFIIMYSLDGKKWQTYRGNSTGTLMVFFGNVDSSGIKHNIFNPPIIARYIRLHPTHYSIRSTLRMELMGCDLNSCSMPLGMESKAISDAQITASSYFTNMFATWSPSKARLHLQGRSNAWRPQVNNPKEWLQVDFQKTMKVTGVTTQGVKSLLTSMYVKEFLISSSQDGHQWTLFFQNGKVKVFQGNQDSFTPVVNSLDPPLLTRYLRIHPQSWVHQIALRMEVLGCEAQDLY

B1: factor VIIIa A2 subunit, wild type (other)
chain: SVAKKHPKTWVHYIAAEEEDWDYAPLVLAPDDRSYKSQYLNNGPQRIGRKYKKVRFMAYTDETFKTREAIQHESGILGPLLYGEVGDTLLIIFKNQASRPYNIYPHGITDVRPLYSRRLPKGVKHLKDFPILPGEIFKYKWTVTVEDGPTKSDPRCLTRYYSSFVNMERDLASGLIGPLLICYKESVDQRGNQIMSDKRNVILFSVFDENRSWYLTENIQRFLPNPAGVQLEDPEFQASNIMHSINGYVFDSLQLSVCLHEVAYWYILSIGAQTDFLSVFFSGYTFKHKMVYEDTLTLFPFSGETVFMSMENPGLWILGCHNSDFRNRGMTALLKVSSCDKNTGDYYEDSYEDISAYLLSKNNAIEPR
Factor VIIIa Decay relative to the WT value, Factor IXa absent [1]: 0.29 relative to WT
Factor VIIIa Decay relative to the WT value, Factor IXa present [1]: 0.18 relative to WT
Factor VIIIa Decay, Factor IXa absent [1]: 0.0241 min⁻¹
Factor VIIIa Decay, Factor IXa present [1]: 0.0027 min⁻¹
Factor VIIIa Decay relative to the WT value, Factor IXa absent [2]: 2.72 relative to WT
Factor VIIIa Decay relative to the WT value, Factor IXa present [2]: 1.03 relative to WT
Factor VIIIa Decay, Factor IXa absent [2]: 0.227 min⁻¹
Factor VIIIa Decay, Factor IXa present [2]: 0.0159 min⁻¹
Factor VIIIa Decay relative to the WT value, Factor IXa absent [3]: 1.95 relative to WT
Factor VIIIa Decay relative to the WT value, Factor IXa present [3]: 1.06 relative to WT
Factor VIIIa Decay, Factor IXa absent [3]: 0.164 min⁻¹
Factor VIIIa Decay, Factor IXa present [3]: 0.0163 min⁻¹
